Measured values reported in paper PMC2835468 (Matrix biology : journal of the International Society for …, 2009).

Assays:
Test in all cases: enzyme inhibition kinetics
[1] = target: T1, ADAMTS5-1 (full-length human ADAMTS-5, C-terminal FLAG-tag) (human, UniProt Q9UNA0 262-930)
T1 sequence (looked up): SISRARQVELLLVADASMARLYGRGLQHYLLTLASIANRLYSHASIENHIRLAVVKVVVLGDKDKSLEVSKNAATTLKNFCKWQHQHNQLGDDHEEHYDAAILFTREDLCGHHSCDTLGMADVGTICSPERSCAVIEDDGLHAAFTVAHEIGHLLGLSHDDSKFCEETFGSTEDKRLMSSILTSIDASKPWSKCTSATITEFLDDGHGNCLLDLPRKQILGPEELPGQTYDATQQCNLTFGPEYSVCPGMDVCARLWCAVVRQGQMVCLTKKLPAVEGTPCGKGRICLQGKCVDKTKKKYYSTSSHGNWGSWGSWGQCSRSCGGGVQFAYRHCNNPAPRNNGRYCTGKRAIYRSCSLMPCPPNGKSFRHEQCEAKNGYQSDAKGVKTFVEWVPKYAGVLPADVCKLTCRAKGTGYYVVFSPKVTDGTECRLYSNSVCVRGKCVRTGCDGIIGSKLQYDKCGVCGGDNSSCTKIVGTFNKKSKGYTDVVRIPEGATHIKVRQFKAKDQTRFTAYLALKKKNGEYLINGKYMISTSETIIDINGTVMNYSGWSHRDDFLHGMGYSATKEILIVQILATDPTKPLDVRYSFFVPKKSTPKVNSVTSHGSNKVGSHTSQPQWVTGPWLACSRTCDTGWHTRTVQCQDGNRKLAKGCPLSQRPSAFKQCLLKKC

[2] = target: T2, ADAMTS4-4 (human ADAMTS-4 deletion mutant, C-terminal FLAG-tag) (human, UniProt O75173 213-519)
T2 sequence (looked up): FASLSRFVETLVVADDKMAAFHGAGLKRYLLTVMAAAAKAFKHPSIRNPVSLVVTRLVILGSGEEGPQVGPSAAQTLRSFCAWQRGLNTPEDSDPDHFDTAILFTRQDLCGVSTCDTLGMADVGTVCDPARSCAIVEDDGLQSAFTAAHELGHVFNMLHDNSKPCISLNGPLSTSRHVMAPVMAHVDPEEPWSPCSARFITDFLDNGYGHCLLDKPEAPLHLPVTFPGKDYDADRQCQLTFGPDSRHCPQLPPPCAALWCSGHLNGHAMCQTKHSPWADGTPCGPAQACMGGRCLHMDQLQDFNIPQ

[3] = target: T3, ADAMTS4-3 (human ADAMTS-4 deletion mutant, C-terminal FLAG-tag) (human, UniProt O75173 213-575)
T3 sequence (looked up): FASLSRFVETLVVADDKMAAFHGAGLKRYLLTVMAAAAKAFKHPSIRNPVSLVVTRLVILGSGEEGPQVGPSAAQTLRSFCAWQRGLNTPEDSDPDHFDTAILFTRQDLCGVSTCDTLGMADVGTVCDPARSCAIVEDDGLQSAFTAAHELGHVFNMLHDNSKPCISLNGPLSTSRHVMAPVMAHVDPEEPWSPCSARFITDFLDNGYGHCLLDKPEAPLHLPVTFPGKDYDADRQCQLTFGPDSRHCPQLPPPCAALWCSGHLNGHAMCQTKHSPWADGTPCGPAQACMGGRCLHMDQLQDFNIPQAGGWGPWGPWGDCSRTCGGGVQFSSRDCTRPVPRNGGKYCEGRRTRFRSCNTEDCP

[4] = target: T4, ADAMTS4-2 (human ADAMTS-4 deletion mutant, C-terminal FLAG-tag) (human, UniProt O75173 213-685)
T4 sequence (looked up): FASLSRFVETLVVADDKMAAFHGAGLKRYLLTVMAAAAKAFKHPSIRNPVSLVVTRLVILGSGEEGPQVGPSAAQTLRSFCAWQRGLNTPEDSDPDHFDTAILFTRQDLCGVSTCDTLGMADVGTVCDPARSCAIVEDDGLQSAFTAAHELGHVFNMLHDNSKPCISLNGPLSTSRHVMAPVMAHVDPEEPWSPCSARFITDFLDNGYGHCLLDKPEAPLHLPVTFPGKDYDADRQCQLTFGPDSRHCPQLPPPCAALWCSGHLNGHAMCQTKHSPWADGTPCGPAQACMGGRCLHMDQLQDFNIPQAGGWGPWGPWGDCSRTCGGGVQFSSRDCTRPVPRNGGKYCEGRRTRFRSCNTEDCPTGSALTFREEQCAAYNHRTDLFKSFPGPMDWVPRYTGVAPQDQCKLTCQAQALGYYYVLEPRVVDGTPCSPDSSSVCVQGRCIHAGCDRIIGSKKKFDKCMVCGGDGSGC

B1: FLAG-tagged glycosylated human TIMP-3 (full-length tissue inhibitor of metalloproteinases 3), expressed in HEK293 (natural protein, UniProt P35625 24-211, looked up)
chain: CTCSPSHPQDAFCNSDIVIRAKVVGKKLVKEGPFGTLVYTIKQMKMYRGFTKMPHVQYIHTEASESLCGLKLEVNKYQYLLTGRVYDGKMYTGLCNFVERWDQLTLSQRKGLNYRYHLGCNCKIKSCYYLPCFVTSKNECLWTDMLSNFGYPGYQSKHYACIRQKGGYCSWYRGWAPPDKSIINATDP
modifications: glycosylated (only the 27 kDa glycosylated form remained after purification; single N-glycosylation site in the C-terminal domain)
Ki [1]: 0.63 nM | Ki [2]: 0.51 nM | Ki [3]: 0.4 nM | Ki [4]: 0.22 nM
